The values below come from patent US10906989 (dated 2021).

Read-outs that look alike come from different tables or passages of the source.

The target of test [1] is T1, BODIPY-labeled staphylocoagulase SC (S7C)(1-325) (Staphylococcus aureus, UniProt P17855 27-351).
T1 sequence: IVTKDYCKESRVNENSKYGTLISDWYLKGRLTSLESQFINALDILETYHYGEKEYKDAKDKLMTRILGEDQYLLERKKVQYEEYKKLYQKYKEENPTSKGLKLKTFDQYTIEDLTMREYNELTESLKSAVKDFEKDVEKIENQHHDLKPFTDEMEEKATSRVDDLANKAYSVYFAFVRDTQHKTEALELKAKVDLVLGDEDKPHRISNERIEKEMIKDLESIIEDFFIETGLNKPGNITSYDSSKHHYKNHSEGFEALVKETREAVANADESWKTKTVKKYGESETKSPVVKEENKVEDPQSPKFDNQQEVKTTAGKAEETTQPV

Test [2] has as its target T2, staphylocoagulase SC(1-246), unlabeled (Staphylococcus aureus, UniProt P17855 27-272).
T2 sequence: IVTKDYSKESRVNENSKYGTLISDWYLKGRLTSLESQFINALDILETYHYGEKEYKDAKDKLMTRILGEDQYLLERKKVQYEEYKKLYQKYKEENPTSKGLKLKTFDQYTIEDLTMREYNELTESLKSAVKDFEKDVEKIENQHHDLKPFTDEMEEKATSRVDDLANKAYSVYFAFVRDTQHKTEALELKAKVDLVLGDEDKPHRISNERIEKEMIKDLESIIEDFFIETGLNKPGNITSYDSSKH

The target in test [3] is T1, BODIPY-labeled staphylocoagulase SC …. Kind of test: BODIPY fluorescence increase on titration, quadratic binding equation.
For the next test, the target named is Mutated Peptide Ala 9 (Staphylococcus aureus). Nature of the test: solid phase competitive inhibition ELISA; peptide in solution against coated ….
Test [4] deals with Mutated Peptide Ala 8 & 9 (Staphylococcus aureus). Described as above.
The target in another test is Mutated Peptide Ala 8 (Staphylococcus aureus). The test is described as above.

B1: GMA-2105 murine monoclonal antibody (antibody, V domains shown)
VH: EVKLEESGGGLVQPGGSMKLSCAASGFTFSDAWMDWVRQSPEKGLEWVAEIRTKANNHATYYAESVKGRFTISRDDSKSSVYLQMNSLRAEDTGIYYCTNVYYGNNDVKDYWGQGTSVTVSP
VL: DIVMTQSQKFMSTSVGDRVSVTCKASQNVDIYVAWYQQKPGQSPKALIYSASYRFSGVPDRFTGSGSGTDFTLSISNVQSEDLAEYFCQQYNNYPYTFGGGTKLEIKR
notes: also called anti-SC(1-10) mAb; clone 2A1.5H4.B7
With B1, the results for the Kd in test [1], in test [2] and in test [3] were 0.99 nM, 4 nM and 2 nM, respectively. For the same molecule, the stoichiometry in test [1] was 2 mol staphylocoagulase/mol GMA-2105. In addition, in test [3], the “stoichiometry (n)” value is 1.6 mol BODIPY-SC/mol GMA-2105. The binding result (with Mutated Peptide Ala 9; in test [4]; in the test with Mutated Peptide Ala 8) was “binds” each time.

B2: Chimeric GMA-2105 (antibody, V domains shown)
VH: B1 VH
VL: B1 VL
As to B2, in test [1], the equilibrium dissociation constant (Kd) was determined as 0.79 nM and the stoichiometry is 2 mol staphylocoagulase/mol chimeric antibody.
